This is an account of results in patent US20240100133A1, “ENZYMATICALLY INACTIVE GRANZYME A AND USES THEREFORE” (Saint Louis University, priority 2022, published 2024).

The test system of data set [1] is Protein Disulfide Isomerase A1 (PDIA1). The note with it: human monocytes infected and treated with GzmA; cited from earlier work.
The target in data set [2] is PDIA1 (Homo sapiens, UniProt P07237). Nature of the data set: Incubation of GzmA-WT with recombinant PDIA1 (silver stain, anti-GzmA WB). It counts as biochemical. Set-up: The cDNA of human PDIA1 (residues 18-479) was cloned into a pET-23 vector expression system; His-tag (N); made in house; host or cells: E. coli BL21(DE3). The note with it: fresh PDIA1; not present with heat-inactivated PDIA1. The procedure: Expression and purification of human recombinant PDIA1. The cDNA of human PDIA1 (residues 18-479) was cloned into a pET-23 vector expression system. An N-terminal His-tag was engineered to facilitate purification. Sequence verified plasmids were transfected into BL21(DE3) cells. Cells were grown in LB medium until an OD600 of ˜0.6. Protein expression was induced with 0.5 mM IPTG. After overnight incubation at 37° C., cells were harvested by centrifugation. Soluble PDI protein was extracted by treating the cells with a nonionic detergent (B-PER, Thermo) followed by purification by affinity chromatography using a TALON resin as described before (Chinnaraj et al., 2021). Briefly, fractions eluted at 200 mM imidazole were pooled, dialyzed overnight in Tris 20 mM pH 7.4 145 mM NaCl to remove imidazole, and then loaded into size exclusion chromatography column 5200 10/300 (Cytiva) to isolate monomeric protein. Final protein concentrations were determined by measuring the absorbance at 280 nm, and using molar extinction coefficient of PDIA1 (i.e., 45755 M-lcm-1). Chemical identity was verified by mass spectrometry. Purify was >98%, as judged by SDS-PAGE.
Chain of PDIA1 (P07237 18-479): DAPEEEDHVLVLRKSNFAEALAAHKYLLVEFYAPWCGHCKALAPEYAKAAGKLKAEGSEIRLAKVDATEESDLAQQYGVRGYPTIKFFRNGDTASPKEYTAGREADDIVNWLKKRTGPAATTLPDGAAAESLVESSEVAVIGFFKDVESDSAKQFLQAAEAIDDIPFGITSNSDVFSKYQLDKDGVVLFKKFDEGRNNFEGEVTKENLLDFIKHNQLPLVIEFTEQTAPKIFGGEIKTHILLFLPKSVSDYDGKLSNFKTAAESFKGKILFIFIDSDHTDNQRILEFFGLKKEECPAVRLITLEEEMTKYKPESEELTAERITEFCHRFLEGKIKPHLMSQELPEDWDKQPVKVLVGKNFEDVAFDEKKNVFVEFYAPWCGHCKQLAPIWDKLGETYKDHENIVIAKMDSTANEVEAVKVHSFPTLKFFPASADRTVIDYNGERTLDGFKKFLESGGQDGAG

B1: GzmA-WT: recombinant wild-type human Granzyme A, homodimeric serine protease, purified from HEK293T supernatants (protein)
chain: IIGGNEVTPHSRPYMVLLSLDRKTICAGALIAKDWVLTAAHCNLNKRSQVILGAHSITREEPTKQIMLVKKEFPYPCYDPATREGDLKLLQLMEKAKINKYVTILHLPKKGDDVKPGTMCQVAGWGRTHNSASWSDTLREVNITIIDRKVCNDRNHYNFNPVIGMNMVCAGSLRGGRDSCNGDSGSPLLCEGVFRGVTSFGLENKCGDPRGPGVYILLSKKHLNWIIMTIKGAV
modifications: left off: small tags and cut ends
notes: recombinant wild-type human Granzyme A, homodimeric serine protease, purified from HEK293T supernatants
Take B1: the “PDIA1 upregulation compared to control” value in data set [1] is given as 90%. Moreover, in data set [2], the “conversion of homodimer by PDIA1” value was “monomeric band at 27 KDa”.
